Experimental data from patent publication US8399206B2, “Methods for diagnosis, prognosis and methods of treatment” (Nodality, Inc., priority 2008, dated 2013).

What was measured:
AML myeloblasts (BMMC) = assay: SCNP of paired diagnosis and relapse AML BMMC and independent diagnostic set (Example 5); format: cell-based, human; conditions: paired diagnosis samples of Patients 1 and 2
Text: All AML bone marrow mononuclear cells (BMMC) were derived from the bone marrow (BM) of AML patients treated at MD Anderson Cancer Center (MDACC) between September 1999 and September 2006. Clinical data were de-identified in compliance with Health Insurance Portability and Accountability Act regulations. Patient/sample inclusion criteria required a diagnosis of French-American-British (FAB) classification of M0 through M7 AML (excluding M3) AML, collection prior to therapy initiation and at least 50% viability upon sample thaw. For the identification of chemoresistant signaling profiles, two longitudinally paired BMMC samples at diagnosis (collection prior to the initiation of induction chemotherapy) and first relapse, were examined. An independent test set comprised of 47 BMMC samples collected at diagnosis from AML patients with a disease response of CR after high dose cytarabine based chemotherapy was used to assess the ability of the identified signaling profiles to predict disease relapse. Healthy, unstimulated BMMC (n=2) were purchased from a commercial source (All Cells) to serve as a control. All samples underwent fractionation over Ficoll-Hypaque prior to cryopreservation with 90% fetal bovine serum and 10% dimethyl sulfoxide and storage in liquid nitrogen.
The SCNP assay measured response to growth factors and cytokines involved in hematopoietic progenitor or myeloid biology (SCF, FLT3L, G-CSF, IL-27), drug transporter (ABCG2, MRP-1) and chemokine receptors (CXCR4) associated with adverse disease prognosis in AML, and the c-Kit growth factor receptor for SCF. The SCF and FLT3L-mediated PI3K/Akt and MAPK pathway is important for maintaining the hematopoietic stem cell pool; G-CSF-mediated Jak/STAT pathway activation is important for neutrophilic differentiation of hematopoietic progenitor cells; interleukin (IL)-27 mediated Jak/STAT pathway activation is important in regulating proliferation and differentiation of hematopoietic stem cells; CXCR4 expression is associated with disease relapse and decreased survival; and drug transporter expression levels (i.e. ABCG2 and MRP-1) are known to be associated with adverse prognosis in AML. All together, approximately 20 signaling nodes were evaluated in each sample.
SCNP assays were performed as described previously. Cryopreserved samples were thawed at 37° C. and washed once in warm PBS containing 10% FBS (HyClone, Waltham, Mass., USA) and 2 mM EDTA. […] The cells were re-suspended in RPMI containing 1% FBS, aliquoted to 100,000 cells/condition and rested for 1-2 hours at 37° C. […]

[1] = test system: FLT3-WT and FLT3-ITD AML leukemic blasts; assay: SCNP signaling and apoptosis in FLT3-WT versus FLT3-ITD AML samples (Example 9); format: cell-based, human
Text: This example identifies intracellular signaling pathways associated with FLT3 ITD in two independent cohorts of diagnostic AML samples that serve as an improvement over current clinical tools in the identification of clinically meaningful altered FLT 3 and has implications for cohort selection in the development of FLT3 inhibitors. The two cohorts of data were further analyzed to investigate the differences in signaling between FLT-WT and FLT-ITD samples. The first cohort of data (“study 1”) comprised the 34 samples from University Health Network outlined in Table 16 and Table 19. The second cohort of data (“study 2”) comprised an 83 sample subset of MD Anderson Cancer Center data outlined in Table 16 (and Table 19). The 83 sample subset was selected based on known FLT3 mutation status. Both cohorts of data were used to investigate differences in FLT3 signaling between leukemic blasts and control data.
In order to further characterize wild-type FLT receptor signaling in AML, we compared FLT3L-induced signaling in the myeloblast population of control BMMC samples with FLT3L-induced signaling in the leukemic blast population of FLT3-WT AML samples.
Univariate analysis, unadjusted for multiple testing, was performed sequentially and independently on the two study cohorts in order to identify signaling nodes that distinguished with FLT3-ITD from FLT3-WT AML patient samples. […] Results from both studies include the AUC, Wilcoxon and t-test p-value for each node, and the number/mean value of the samples in the FLT3-ITD and FLT3-WT AML groups with common stratifying nodes summarized in FIG. 23. Although the majority of the discussion herein is directed to nodes that had similar reponses within the two cohorts of data, some differences were observed between the two cohorts of data. These differences may have been due to the different clinical characteristics of the two cohorts of data, specifically biases in the data from UHN.

Molecule	responsive cells in diagnostic AML bone marrow samples (AML myeloblasts (BMMC))	FLT3L-induced PI3K and MAPK pathway activation ([1]; FLT3-ITD samples compared to FLT3-WT samples)	FLT3L-induced signaling at 15 minutes ([1]; FLT3-WT AML samples)	range of FLT3L-induced S6 signaling ([1]; FLT3-WT AML samples)	FLT3L-induced p-Akt and p-S6 ([1]; FLT3-WT AML samples, early time points (4 minutes, 10 minutes))	responsive subpopulation in diagnosis samples (AML myeloblasts (BMMC))	responsiveness to IL-27 stimulation ([1]; FLT3-ITD samples)	IL-27-induced p-Stat responses ([1]; FLT3-WT samples)
FLT-3L: fms-like tyrosine kinase receptor-3 ligand (protein, UniProt P49771 27-235, looked up) Fms-related tyrosine kinase 3 …: TQDCSFQHSPISSDFAVKIRELSDYLLQDYPVTVASNLQDEELCGGLWRLVLAQRWMERLKTVAGSKMQGLLERVNTEIHFVTKCAFQPPPSCLRFVQTNISRLLQETSEQLVALKPWITRQNFSRCLELQCQPDSSTLPPPWSPRPLEATAPTAPQPPLLLLLLLPVGLLLLAAAWCLHWQRTRRRTPRPGEQVPPVPSPQDLLLVEH	~1%	lower levels of induced and total PI3K and MAPK pathway activation	sustained p-Erk, p-CREB and p-Akt activation	wide range of S6 signaling	increased levels of p-Akt and p-S6	–	–	–
IL-27: interleukin-27 (protein, UniProt Q8NEV9 29-243; Q14213 21-229, looked up) Interleukin-27 subunit alpha: FPRPPGRPQLSLQELRREFTVSLHLARKLLSEVRGQAHRFAESHLPGVNLYLLPLGEQLPDVSLTFQAWRRLSDPERLCFISTTLQPFHALLGGLGTQGRWTNMERMQLWAMRLDLRDLQRHLRFQVLAAGFNLPEEEEEEEEEEEEERKGLLPGALGSALQGPAQVSWPQLLSTYRLLHSLELVLSRAVRELLLLSKAGHSVWPLGFPTLSPQP Interleukin-27 subunit beta: RKGPPAALTLPRVQCRASRYPIAVDCSWTLPPAPNSTSPVSFIATYRLGMAARGHSWPCLQQTPTSTSCTITDVQLFSMAPYVLNVTAVHPWGSSSSFVPFITEHIIKPDPPEGVRLSPLAERQLQVQWEPPGSWPFPEIFSLKYWIRYKRQGAARFHRVGPIEATSFILRAVRPRARYYVQVAAQDLTDYGELSDWSLPATATMSLGK	–	–	–	–	–	no IL-27 responsive subpopulation was identified	minimal responsiveness	wide range of p-Stat responses
